The values below come from PMC12185008, “The PavMYB.C2-UFGT module contributes to fruit coloration via modulating anthocyanin biosynthesis in sweet cherry”.

This data set addresses T1, PavMYB.C2 (Prunus avium (sweet cherry), UniProt A0A6P5T6R9 1-74).
T1 sequence: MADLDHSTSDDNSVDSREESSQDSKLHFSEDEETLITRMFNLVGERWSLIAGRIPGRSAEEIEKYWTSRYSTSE
Put plainly: EMSA; EMSA/Gel-Shift Kit (Beyotime) with LightShift chemiluminescent EMSA kit (Thermo Fisher), standard protocol; buffer, salt, pH and temperature not stated. Conditions: protein: recombinant; tags: GST (pGEX-4T-1); label: 3' biotin (Methods); blunt.

B1: UFGT promoter MBS3 probe (dsDNA)
DNA 1: TTCACTCCTCGACTCAGCAAGTGGTTATTTAGTGGTAGAGTTTGTTTTGA
DNA 2: TCAAAACAAACTCTACCACTAAATAACCACTTGCTGAGTCGAGGAGTGAA
B1: the binding result is on record as “binds”.

B2: UFGT promoter MBS1 probe (dsDNA)
DNA 1: GATCGATATTTAGAGAGAGAAACAACCACCCGCGTGATGTGTGAGAGAAA
DNA 2: TTTCTCTCACACATCACGCGGGTGGTTGTTTCTCTCTCTAAATATCGATC
As to B2, the binding result is listed as “no binding”.

B3: UFGT promoter MBS2 probe (dsDNA)
DNA 1: TGAGAGAAAGAAATAAAAATCAGAAACAAAGGTAGCGTTTTTCTTTCTTT
DNA 2: AAAGAAAGAAAAACGCTACCTTTGTTTCTGATTTTTATTTCTTTCTCTCA
B3: the binding result is “no binding”.
